Measured values published in the Human Domainome abundance scans (Beltran et al. 2025).
± gives the uncertainty stated by the source.

B1: Transitional endoplasmic reticulum ATPase, residues 26 to 106; numbered along this chain, P55072 (parent)
chain: LIVDEAINEDNSVVSLSQPKMDELQLFRGDTVLLKGKKRREAVCIVLSDDTCSDEKIRMNRVVRNNLRVRLGDVISIQPCP

Variants of: B1
Test: abundance fitness (aPCA) (normalised: wild type 0, dead -1); higher = more abundant; growth selection in yeast, the domain comes from the species named
Conditions: Homo sapiens
Variant V3G has an abundance fitness of -0.811 ± 0.088. V3F showed an abundance fitness of -0.797 ± 0.21. With V3I the abundance fitness was -0.037 ± 0.13. V3T gave an abundance fitness of -0.432 ± 0.097. For I45G, the abundance fitness was -0.06 ± 0.036. I45C showed an abundance fitness of 0.008 ± 0.063. Variant I45M has an abundance fitness of -0.137 ± 0.064. I77T showed an abundance fitness of -0.672 ± 0.17. In the case of I77A, the abundance fitness is reported as -0.309 ± 0.075. Work on I77E yielded an abundance fitness of -0.85 ± 0.22. For I77M, the abundance fitness was -0.097 ± 0.078. I77R showed an abundance fitness of -0.91 ± 0.12. R64V gave an abundance fitness of -0.321 ± 0.065. In the case of R64Q, the abundance fitness is reported as -0.105 ± 0.1. R64C showed an abundance fitness of -0.227 ± 0.12. Work on R64E yielded an abundance fitness of -0.65 ± 0.16. In the case of R64N, the abundance fitness is reported as -0.458 ± 0.17. Work on R70D yielded an abundance fitness of -0.091 ± 0.13. With R70Y the abundance fitness was 0.005 ± 0.15. In the case of R70I, the abundance fitness is reported as -0.242 ± 0.19. R70V gave an abundance fitness of -0.076 ± 0.064. Work on R68P yielded an abundance fitness of -0.891 ± 0.17. For K37M, the abundance fitness was 0.156 ± 0.31. Work on K37W yielded an abundance fitness of -0.183 ± 0.1. C80Y gave an abundance fitness of -0.109 ± 0.059. Work on C80M yielded an abundance fitness of 0.055 ± 0.2. Work on C80K yielded an abundance fitness of -0.505 ± 0.49. With C80D the abundance fitness was -0.064 ± 0.072. In the case of C80E, the abundance fitness is reported as -0.095 ± 0.17. In the case of C80H, the abundance fitness is reported as -0.064 ± 0.14. In the case of R39A, the abundance fitness is reported as -0.001 ± 0.06. R39M showed an abundance fitness of -0.142 ± 0.12. L34K gave an abundance fitness of -0.806 ± 0.2. Work on L34I yielded an abundance fitness of 0.074 ± 0.21. In the case of L34G, the abundance fitness is reported as -0.46 ± 0.12. In the case of L34W, the abundance fitness is reported as -0.777 ± 0.23. Variant S53A has an abundance fitness of -0.019 ± 0.048. In the case of S53V, the abundance fitness is reported as -0.022 ± 0.053. In the case of S53N, the abundance fitness is reported as 0.044 ± 0.15. Variant S53I has an abundance fitness of -0.204 ± 0.13. With S53P the abundance fitness was -0.142 ± 0.1. With D73N the abundance fitness was -0.102 ± 0.22. For D73C, the abundance fitness was -0.343 ± 0.15. D73I showed an abundance fitness of -0.655 ± 0.24. D73H showed an abundance fitness of -0.135 ± 0.14. D73S showed an abundance fitness of -0.012 ± 0.07. K56N showed an abundance fitness of 0.111 ± 0.23. Variant K56M has an abundance fitness of -0.112 ± 0.082. K56F showed an abundance fitness of -0.127 ± 0.1. Variant K56I has an abundance fitness of 0.013 ± 0.15. V43A showed an abundance fitness of -0.026 ± 0.064. For V43R, the abundance fitness was 0.07 ± 0.053. For V43L, the abundance fitness was -0.099 ± 0.066. For V43C, the abundance fitness was -0.012 ± 0.1. In the case of S15C, the abundance fitness is reported as -0.006 ± 0.066. In the case of S15M, the abundance fitness is reported as -0.058 ± 0.079. For S15I, the abundance fitness was 0.002 ± 0.077. S15N showed an abundance fitness of 0.08 ± 0.1. In the case of S15E, the abundance fitness is reported as 0.008 ± 0.076. S15Y gave an abundance fitness of 0 ± 0.095. D54G showed an abundance fitness of -0.075 ± 0.044. In the case of D54E, the abundance fitness is reported as -0.062 ± 0.079. Work on D54M yielded an abundance fitness of 0.006 ± 0.12. Work on D54Q yielded an abundance fitness of -0.279 ± 0.1. Work on D54N yielded an abundance fitness of -0.072 ± 0.089. For D54T, the abundance fitness was 0.218 ± 0.095. D54H gave an abundance fitness of -0.073 ± 0.18. Variant V62P has an abundance fitness of -0.378 ± 0.11. V62I gave an abundance fitness of 0.011 ± 0.13. Work on M21K yielded an abundance fitness of -0.881 ± 0.17. Variant M21Q has an abundance fitness of -0.752 ± 0.18. Work on M21G yielded an abundance fitness of -0.894 ± 0.081. Work on F27W yielded an abundance fitness of -0.101 ± 0.06. F27T showed an abundance fitness of 0.127 ± 0.06. With F27N the abundance fitness was -0.022 ± 0.12. A6Y showed an abundance fitness of -0.404 ± 0.21. Variant A6G has an abundance fitness of 0.024 ± 0.044. For A6S, the abundance fitness was 0.029 ± 0.061. A6H gave an abundance fitness of 0.001 ± 0.084. Q18M gave an abundance fitness of 0.249 ± 0.13. In the case of Q18E, the abundance fitness is reported as -0.114 ± 0.1. For Q18P, the abundance fitness was -0.078 ± 0.092.
